Results published in patent US20240366811A1, “RA[…] P[…] USES THEREOF” (TIANJIN CONJUSTAR BIOLOGICS CO., LTD., priority 2023, published 2024).
*1 amine or outer side, *2 acyl side, *3 side chain or, on linkers, in order; H or OH if unused. Where a SMILES comes first, the peptide text is derived from it. Bridges are numbered along the chain shown (N, C = ends). [ ]: non-standard residue; d: D form. The star is where a group is joined. TATA = O=C(CC[*:1])N1CN(C(=O)CC[*:2])CN(C(=O)CC[*:3])C1; NOTA = O=C(O)CN1CCN(CC(=O)O)CCN(CC(=O)*)CC1; Hyp = O=C(O)[C@@H]1C[C@@H](O)CN1; hArg = N=C(N)NCCCC[C@H](N)C(=O)O; Pen = CC(C)(S)[C@H](N)C(=O)O; βAla = NCCC(=O)O; Sar = CNCC(=O)O

What was measured:
[1] = in vivo; settings: nude, mouse, iv, 11.1 MBq, total radioactivity
Experimental: The tissue distribution characteristics of the compounds in PC-3 tumor-bearing mice were studied by using the PC-3 tumor-bearing mice model, small animal PET/CT scans were performed at different time points after a single intravenous administration of the compounds, tumors and other regions of interest were delineated to obtain radioactive uptake values.
Tumor cells in the logarithmic growth phase were used for in vivo tumor inoculation. PC-3 cells were suspended in saline at a density of 5×10^6/mL, and a total of 15 nude mice were inoculated under the right flank at 0.1 mL per inoculation point. Imaging and biodistribution experiments were performed when tumors grew to 300-600 mm^3 (tumor volume measurement method: the long diameter and short diameter of the tumor were measured, and its volume calculation formula was: volume=0.5× major diameter× minor diameter^2). The drug was distributed according to the animal dose on the drug distribution table, and a certain volume of compound diluent was absorbed by a 1 mL insulin syringe, and the initial radioactive dose and initial dosimetry time were recorded. The injection time, residual radioactivity dose, and residual dose determination time were recorded after tail vein injection in tumor-bearing mice. […] PET/CT scans of animals were performed at different time points after administration. During the scanning process, the animals continued to inhale 1-2% isoflurane to maintain the anesthetic effect, and the scanning time was recorded. […] After the completion of PET/CT scanning, the images were reconstructed and the images and data were processed with the software of the device. The tumor, heart (including contents), kidney, intestine, and muscle were delineated as regions of interest. The percentage injection dose rate per gram of tissue in the area of interest (% ID/g) was obtained. The data of biological distribution was expressed as the percentage of radioactive count per gram of tissue or organ to the total dose (radioactive count) (% ID/g).
Data for each sampling point were expressed as the mean standard deviation (mean SD) of 3 tumor-bearing mice.

[2] = in vivo; settings: mouse, iv, 11.1 MBq, total radioactivity; for tissue uptake at 4 h: dissected tissue, single iv 11.1 MBq
Experimental: In vivo radiobiological distribution assay: mice in the PET/CT imaging group were sacrificed immediately after the end of 4 h imaging, and mice in the inhibition group were sacrificed after 1 h imaging. Tissue samples of tumor, blood, heart, lung, liver, spleen, kidney, stomach, intestine, bone, muscle, and brain were collected by dissection, weighed and their radioactive counts were recorded. The probe uptake value in each tissue and organ of each experimental animal is expressed as radioactivity per gram of tissue as a percentage of the dose administered (% ID/g).

[3] = tumor and heart (including contents)

## CC(C)C[C@@H]1NC(=O)[C@@H]2CSCCC(=O)N3CN(CN(C3)C(=O)CCSC(C)(C)[C@@H](C(N)=O)NC(=O)[C@H](CCCCNC(=N)N)NC(=O)[C@H](Cc3c[nH]c4ccccc34)NC(=O)[C@@H](CC(=O)O)NC(=O)[C@@H]3CCCN3C(=O)[C@H](Cc3c[nH]cn3)NC1=O)C(=O)CCSC[C@H](NC(=O)[C@@H]1CC(=O)NCCCC[C@H](NC(=O)CN(C)C(=O)CN(C)C(=O)CN(C)C(=O)CN(C)C(=O)CN(C)C(=O)CN(C)C(=O)CN(C)C(=O)CN(C)C(=O)CN(C)C(=O)CN(C)C(=O)CCNC(=O)CN3CCN(CC(=O)O)CCN(CC(=O)O)CC3)C(=O)N[C@@H](CCCCNC(=N)N)C(=O)N1)C(=O)N1C[C@H](O)C[C@H]1C(=O)N[C@@H](CC(C)C)C(=O)N[C@@H](C(C)C)C(=O)N[C@@H](CC(N)=O)C(=O)N1CCC[C@H]1C(=O)N[C@@H](CC(C)C)C(=O)N2 [Example 3] ({NOTA-βAla}-[Sar][Sar][Sar][Sar][Sar][Sar][Sar][Sar][Sar][Sar]K[hArg]DC[Hyp]LVNPLCLHP[dD]W[hArg][Pen]-NH2; lactam 11-13; linker 14-21-28 via TATA)
[1]; muscle
  tissue uptake at 2 h: 0.07 ± 0.02 %ID/g
  tissue uptake at 4 h: 0.03 ± 0.01 %ID/g
[1]; [3]
  tissue to tissue ratio at 0.5 h: 1.23 ± 0.25
  tissue to tissue ratio at 1 h: 2.08 ± 0.74
  tissue to tissue ratio at 2 h: 6.97 ± 3.01
  tissue to tissue ratio at 4 h: 15.9 ± 5.85
[1]; tumor and kidney
  tissue to tissue ratio at 0.5 h: 0.12 ± 0.01
  tissue to tissue ratio at 1 h: 0.13 ± 0.03
  tissue to tissue ratio at 2 h: 0.12 ± 0.06
[1]; tumor and liver
  tissue to tissue ratio at 0.5 h: 1.57 ± 0.14
  tissue to tissue ratio at 1 h: 2.24 ± 0.68
  tissue to tissue ratio at 2 h: 4.53 ± 1.44
[1]; tumor and muscle
  tissue to tissue ratio at 0.5 h: 2.69 ± 0.47
  tissue to tissue ratio at 1 h: 5.01 ± 0.82
  tissue to tissue ratio at 2 h: 15.6 ± 3.52
  tissue to tissue ratio at 4 h: 31.4 ± 9.05
[1]; tumor
  tissue uptake at 2 min: 1.37 ± 0.21 %ID/g
  tissue uptake at 5 min: 1.41 ± 0.13 %ID/g
  tissue uptake at 8 min: 1.45 ± 0.13 %ID/g
  tissue uptake at 11 min: 1.46 ± 0.09 %ID/g
  tissue uptake at 14 min: 1.46 ± 0.07 %ID/g
  tissue uptake at 17 min: 1.48 ± 0.08 %ID/g
  tissue uptake at 20 min: 1.51 ± 0.13 %ID/g
  tissue uptake at 23 min: 1.46 ± 0.09 %ID/g
  tissue uptake at 26 min: 1.46 ± 0.13 %ID/g
  tissue uptake at 29 min: 1.45 ± 0.14 %ID/g
  tissue uptake at 0.5 h: 1.43 ± 0.13 %ID/g
  tissue uptake at 1 h: 1.27 ± 0.28 %ID/g
  tissue uptake at 2 h: 1.04 ± 0.45 %ID/g
  tissue uptake at 4 h: 0.98 ± 0.46 %ID/g
[2]; nude mice, heart, radioactive uptake: Heart, mouse S1
  tissue uptake at 4 h: 0.31 %ID/g
[2]; nude mice, intestine, radioactive uptake: Intestine, Mean ± SD of S1-S3
  tissue uptake at 4 h: 0.31 ± 0.1 %ID/g
[2]; nude mice, intestine, radioactive uptake: Intestine, mouse S1
  tissue uptake at 4 h: 0.42 %ID/g
[2]; nude mice, intestine, radioactive uptake: Intestine, mouse S2
  tissue uptake at 4 h: 0.29 %ID/g
[2]; nude mice, intestine, radioactive uptake: Intestine, mouse S3
  tissue uptake at 4 h: 0.22 %ID/g
[2]; nude mice, muscle, radioactive uptake: Muscle, Mean ± SD of S1-S3
  tissue uptake at 4 h: 0.5 ± 0.23 %ID/g
[2]; nude mice, muscle, radioactive uptake: Muscle, mouse S1
  tissue uptake at 4 h: 0.46 %ID/g
[2]; nude mice, muscle, radioactive uptake: Muscle, mouse S2
  tissue uptake at 4 h: 0.76 %ID/g
[2]; nude mice, muscle, radioactive uptake: Muscle, mouse S3
  tissue uptake at 4 h: 0.3 %ID/g
[2]; nude mice, tumor and spleen
  tissue to tissue ratio at 4 h: 7.2 ± 3
[2]; nude mice, tumor/blood
  tissue to tissue ratio at 4 h: 21.9 ± 16.7
[2]; nude mice, tumor/bone
  tissue to tissue ratio at 4 h: 4.23 ± 2.87
[2]; nude mice, tumor/brain
  tissue to tissue ratio at 4 h: 58.8 ± 28.7
[2]; nude mice, tumor/intestine
  tissue to tissue ratio at 4 h: 15.7 ± 10.3
[2]; nude mice, tumor/muscle
  tissue to tissue ratio at 4 h: 11.3 ± 8.54
[2]; nude mice, tumor/stomach
  tissue to tissue ratio at 4 h: 24 ± 9.97
[2]; nude, blood, radioactive uptake: Blood, Mean ± SD of S1-S3
  tissue uptake at 4 h: 0.31 ± 0.22 %ID/g
[2]; nude, blood, radioactive uptake: Blood, mouse S1
  tissue uptake at 4 h: 0.2 %ID/g
[2]; nude, blood, radioactive uptake: Blood, mouse S2
  tissue uptake at 4 h: 0.56 %ID/g
[2]; nude, blood, radioactive uptake: Blood, mouse S3
  tissue uptake at 4 h: 0.16 %ID/g
[2]; nude, bone, radioactive uptake: Bone, Mean ± SD of S1-S3
  tissue uptake at 4 h: 1.23 ± 0.43 %ID/g
[2]; nude, bone, radioactive uptake: Bone, mouse S1
  tissue uptake at 4 h: 1.15 %ID/g
[2]; nude, bone, radioactive uptake: Bone, mouse S2
  tissue uptake at 4 h: 1.69 %ID/g
[2]; nude, bone, radioactive uptake: Bone, mouse S3
  tissue uptake at 4 h: 0.84 %ID/g
[2]; nude, brain, radioactive uptake: Brain, Mean ± SD of S1-S3
  tissue uptake at 4 h: 0.08 ± 0.03 %ID/g
[2]; nude, brain, radioactive uptake: Brain, mouse S1
  tissue uptake at 4 h: 0.11 %ID/g
[2]; nude, brain, radioactive uptake: Brain, mouse S2
  tissue uptake at 4 h: 0.05 %ID/g
[2]; nude, brain, radioactive uptake: Brain, mouse S3
  tissue uptake at 4 h: 0.06 %ID/g
[2]; nude, heart, radioactive uptake: Heart, Mean ± SD of S1-S3
  tissue uptake at 4 h: 0.26 ± 0.06 %ID/g
[2]; nude, heart, radioactive uptake: Heart, mouse S2
  tissue uptake at 4 h: 0.29 %ID/g
[2]; nude, heart, radioactive uptake: Heart, mouse S3
  tissue uptake at 4 h: 0.2 %ID/g
[2]; nude, kidney, radioactive uptake: Kidney, Mean ± SD of S1-S3
  tissue uptake at 4 h: 57 ± 5.7 %ID/g
[2]; nude, kidney, radioactive uptake: Kidney, mouse S1
  tissue uptake at 4 h: 62.7 %ID/g
[2]; nude, kidney, radioactive uptake: Kidney, mouse S2
  tissue uptake at 4 h: 51.3 %ID/g
[2]; nude, kidney, radioactive uptake: Kidney, mouse S3
  tissue uptake at 4 h: 57.1 %ID/g
[2]; nude, liver, radioactive uptake: Liver, Mean ± SD of S1-S3
  tissue uptake at 4 h: 0.62 ± 0.11 %ID/g
[2]; nude, liver, radioactive uptake: Liver, mouse S1
  tissue uptake at 4 h: 0.66 %ID/g
[2]; nude, liver, radioactive uptake: Liver, mouse S2
  tissue uptake at 4 h: 0.5 %ID/g
[2]; nude, liver, radioactive uptake: Liver, mouse S3
  tissue uptake at 4 h: 0.71 %ID/g
[2]; nude, lung, radioactive uptake: Lung, Mean ± SD of S1-S3
  tissue uptake at 4 h: 0.42 ± 0.1 %ID/g
[2]; nude, lung, radioactive uptake: Lung, mouse S1
  tissue uptake at 4 h: 0.49 %ID/g
[2]; nude, lung, radioactive uptake: Lung, mouse S2
  tissue uptake at 4 h: 0.46 %ID/g
[2]; nude, lung, radioactive uptake: Lung, mouse S3
  tissue uptake at 4 h: 0.31 %ID/g
[2]; nude, spleen, radioactive uptake: Spleen, Mean ± SD of S1-S3
  tissue uptake at 4 h: 0.6 ± 0.06 %ID/g
[2]; nude, spleen, radioactive uptake: Spleen, mouse S1
  tissue uptake at 4 h: 0.66 %ID/g
[2]; nude, spleen, radioactive uptake: Spleen, mouse S2
  tissue uptake at 4 h: 0.54 %ID/g
[2]; nude, spleen, radioactive uptake: Spleen, mouse S3
  tissue uptake at 4 h: 0.59 %ID/g
[2]; nude, stomach, radioactive uptake: Stomach, Mean ± SD of S1-S3
  tissue uptake at 4 h: 0.18 ± 0.04 %ID/g
[2]; nude, stomach, radioactive uptake: Stomach, mouse S1
  tissue uptake at 4 h: 0.22 %ID/g
[2]; nude, stomach, radioactive uptake: Stomach, mouse S2
  tissue uptake at 4 h: 0.15 %ID/g
[2]; nude, stomach, radioactive uptake: Stomach, mouse S3
  tissue uptake at 4 h: 0.17 %ID/g
[2]; nude, tumor and heart
  tissue to tissue ratio at 4 h: 18 ± 11.4
[2]; nude, tumor and lung
  tissue to tissue ratio at 4 h: 11.3 ± 7.18
[2]; nude, tumor, radioactive uptake: Tumor, Mean ± SD of S1-S3
  tissue uptake at 4 h: 4.38 ± 1.94 %ID/g
[2]; nude, tumor, radioactive uptake: Tumor, mouse S1
  tissue uptake at 4 h: 5.03 %ID/g
[2]; nude, tumor, radioactive uptake: Tumor, mouse S2
  tissue uptake at 4 h: 2.19 %ID/g
[2]; nude, tumor, radioactive uptake: Tumor, mouse S3
  tissue uptake at 4 h: 5.9 %ID/g
